Results on eleven molecules are retold here after patent US20240117056A1 (IBIO, published 2024).

The chains are these.
B1: SD-837152-afuc (antibody, V domains shown)
VH: QVQLVQSGAEVKKPGASVKVSCKASGYTFTSYDINWVRQAPGQRLEWMGWIFPGDGTSKYNEKFKGRVTITRDTSASTAYMELSSLRSEDTAVYYCARRLGSHWGQGTLVTVSS
VL: DIVLTQSPASLAVSPGQRATITCKASQSVDSDGDSYMNWYQQKPGQPPKLLIYGASNLESGVPARFSGSGSGTDFTLTINPVEANDTANYYCQQSHEYPFTFGQGTKLEIK
notes: afucosylated (FUT8 knock-out CHO)
B2: SD-233883-afuc (antibody, V domains shown)
VH: EVQLQQFGAELVKPGASVKLSCKASGYTFTSYDINWVRQRPEQGLEWIGWIFPGDGTSKYNEKFKGKATLSTDKSSSTAYMQLSRLTIEDSAVYFCARRLGSHWGQGSTLTVSS
VL: DIVLTQSPASLAVSLGQRATISCKASQSVDSDGDSYMNWYQQKPGQPPKLLIYGASNLESGIPARFSGSGSGTDFSLNIHPVEEEDAATYYCQQSHEYPFTFGGGTKLEIK
notes: afucosylated, made in FUT8 knock-out CHO cells; also called chimera
B3: SD-382591-afuc (antibody, V domains shown)
VH: B1 VH with Q1E, R44G, N61A, E62Q, K65Q, I70M, R72T, A76T, L109T
VL: DIQLTQSPSSLSASVGDRVTITCKASQSVDSDGDSYMNWYQQKPGKAPKLLIYGASNLESGVPSRFSGSGSGTDFTLTISSLQPEDFATYYCQQSHEYPFTFGQGTKLEIK
notes: as for B1
B4: SD-741396-afuc (antibody, V domains shown)
VH: B1 VH with Q1E, R44G, N61A, E62Q, K65Q, I70M, R72T, A76T, L109T
VL: B3 VL with V19A, V62I, L82V
notes: as for B1
B5: SD-844257-afuc (antibody, V domains shown)
VH: EVQLVQSGAEVKKPGASVKLSCKASGYTFTSYDINWVRQAPGQGLEWIGWIFPGDGTSKYAQKFQGRATLTTDTSTSTAYMELSSLRSEDTAVYYCARRLGSHWGQGTTLTVSS
VL: B3 VL
notes: as for B1
B6: SD-577776-afuc (antibody, V domains shown)
VH: B5 VH with T74K
VL: B3 VL with V19A, V62I, L82V
notes: as for B1
B7: SD-787077-afuc (antibody, V domains shown)
VH: B5 VH with L20V, I48M, A68V, L70M, T74K, L110V
VL: B3 VL
notes: as for B1
B8: SD-638526-afuc (antibody, V domains shown)
VH: B5 VH with L20V, I48M, A68V, L70M, T74K, L110V
VL: B3 VL with V19A, V62I, L82V
notes: as for B1
B9: SD-710726-afuc (antibody, V domains shown)
VH: B5 VH with T74K
VL: B3 VL
notes: as for B1
B10: SD-633416-afuc (antibody, V domains shown)
VH: B5 VH with L20V, I48M, A68V, L70M, T72R, A79V, L110V
VL: B3 VL with L4M
notes: as for B1
B11: SD-757052-afuc (antibody, V domains shown)
VH: B5 VH
VL: B3 VL with V19A, V62I, L82V
notes: as for B1

Numbering of substitutions follows the chain as printed.

The first test addresses T1, human EGFRvIII overexpressed on cells (F98npEGFRvIII, U87MG-EGFRvIII, FaDu-EGFRvIII) (human, UniProt P00533 25-1210).
T1 construct: whole, on cells; the vIII deletion must be applied; also called F98 EGFRvIII
Description: flow cytometry, FaDu-EGFRvIII cells, n=3.
The EC50 is the concentration at which the effect is half-maximal. B1 showed a concentration giving a half-maximal response (EC50) of 4.98 nM.
In turn, B2 yielded an EC50 of 3.13 nM.

Another test addresses T1, human EGFRvIII overexpressed on cells …. Description: cell-based or functional assay.
Consider B3, for which the “ADCC EC50 (nM), F98 EGFRvIII cells with PBMC” value worked out at 0.106 nM.
Still for that read-out and setting: the figure for B4 is 0.123 nM.
B5: the “ADCC EC50 (nM), F98 EGFRvIII cells with PBMC” value is 0.0738 nM.
On to B6, for which the “ADCC EC50 (nM), F98 EGFRvIII cells with PBMC” value was 0.0687 nM.
Turning to B7, the “ADCC EC50 (nM), F98 EGFRvIII cells with PBMC” value was determined as 0.0605 nM.
Still for that read-out and setting: the figure for B8 is 0.111 nM; for B9 it is 0.0168 nM.
Same read-out and setting: the figure for B10 is 0.289 nM.
Take B11: the “ADCC EC50 (nM), F98 EGFRvIII cells with PBMC” value came out at 0.0562 nM.
On the same count and under the same terms, the figure for B2 is 0.0082 nM.

For a further test the target is unchanged. Description: cell-based or functional assay. The source holds these as a separate data set.
For the molecule B1, the “ADCC EC50 (nM), FaDu-EGFRvIII cells with PBMC” value amounted to 0.0058 nM.
The same measure, in the same setting: the value for B2 was 0.0039 nM.

The target in a further test is T2, human EGFR, purified recombinant protein (Acro Biosystems Cat #EGR-H5222) (human, UniProt P00533 25-645).
T2 construct: Bought protein; also called EGFR1; full length human EGFR1
Description: SPR (Carterra LSA), antibody captured on anti-human IgG, EGFR1 injected in a 5-fold series from 500 nM.
Take B4: the binding result is “no binding”.
On the same count and under the same terms, the value for B9 was “no binding”; that for B11 was “no binding”.

Another test has as its target T3, wild type human EGFR1 on cells (F98 EGFR1; wild type U87MG; wild type FaDu) (human, UniProt P00533 25-1210).
T3 construct: whole, on cells
Description: flow cytometry on F98 EGFR1 cells, anti-human IgG Fc Alexa Fluor 647, MFI. (A flow cytometer gives signals particle by particle.)
With B3, the binding result is “no binding”.
Same read-out and setting: the value for B4 was “no binding”.
Same read-out and setting: the entry for B5 is “no binding”; for B6 it is “no binding”.
As to B7, the binding result was “no binding”.
For B8, the binding result is recorded as “no binding”.
Still for that read-out and setting: the entry for B9 is “no binding”.
Same read-out and setting: the entry for B10 is “no binding”.
On the same count and under the same terms, the entry for B11 is “no binding”; for B2 it is “no binding”.

A further test deals with T1, human EGFRvIII overexpressed on cells …. Description: flow cytometry, U87MG-EGFRvIII cells, n=3.
Molecule B1 showed an EC50 of 5.75 nM.
The molecule B2 came in with an EC50 of 4.05 nM.

Another test shares this target. As to the kind of experiment: flow cytometry, F98npEGFRvIII cells, n=3.
As for B3, the midpoint of the response, the EC50, lay at 4.13 nM.
Same read-out and setting: the value for B4 was 5.12 nM.
In turn, B5 registered an EC50 of 3.85 nM.
Same read-out and setting: the figure for B6 is 3.46 nM; for B7 it is 3.91 nM.
B8: a half-maximal response (EC50) required 3.21 nM.
On the same count and under the same terms, the value for B9 was 4.02 nM; that for B10 was 13.8 nM; that for B11 was 4.17 nM.
For B2, a half-maximal effect (EC50) was put at 2.07 nM.

A further test shares this target. As to the kind of experiment: cell-based or functional assay. This is another data set of the same source.
With B1, the “ADCC EC50 (nM), U87MG-EGFRvIII cells with PBMC” value was 0.0036 nM.
On the same count and under the same terms, the figure for B2 is 0.0026 nM.

A further test addresses T2, human EGFR, purified recombinant …. As to the kind of experiment: SPR (Carterra LSA), antibody captured on anti-human IgG, EGFR1 injected in a 5-fold series from 500 nM. The source holds these as a separate data set.
Consider B1, for which the binding result is recorded as “no binding”.
Regarding B5, the binding result is reported as “no binding”.
The same measure, in the same setting: the value for B7 was “no binding”.

The target of a further test is T3, wild type human EGFR1 on cells (F98 …). As to the kind of experiment: flow cytometry on wild type U87MG cells, anti-human IgG Fc Alexa Fluor 647, MFI.
On to B1, for which the binding result was “no binding”.

For another test, the target named is T4, human EGFRvIII, purified recombinant protein (Acro Biosystems Cat #EGI-H52H4) (human, UniProt P00533 25-645).
T4 construct: Bought protein; the deletion must be applied; also called truncated human EGFRvIII; huEGFRvIII
As to the kind of experiment: SPR (Carterra LSA), antibody captured on anti-human IgG, antigen injected, 1:1 Langmuir fit.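 Also: EGFRvIII injected at five concentrations, fivefold serial dilution starting 500 nM, 5 min association then 15 min dissociation, double-referenced against interspot and buffer blank signals, global kinetic fit.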
As a reminder, the Kd is the equilibrium constant for the complex coming apart. What is called koff is the rate constant with which the complex falls apart. A word on the kon: it is the rate constant with which the complex forms. Regarding B3, the Kd is 131 nM, the koff came to 0.0087 s⁻¹ and the kon is 66000 M⁻¹ s⁻¹.
Take B1: the Kd came out at 60 nM, the dissociation rate constant (koff) turned out to be 0.0026 s⁻¹ and the kon amounted to 43000 M⁻¹ s⁻¹.
Taken in the same sequence, the figures for B4 were 159 nM, 0.011 s⁻¹ and 66000 M⁻¹ s⁻¹.
For B5, in that order: 90 nM, 0.0048 s⁻¹ and 53000 M⁻¹ s⁻¹.
Taken in the same sequence, the figures for B6 were 100 nM, 0.0058 s⁻¹ and 57000 M⁻¹ s⁻¹.
In the case of B7, the Kd was found to be 108 nM, the koff is 0.0077 s⁻¹ and the kon is 71000 M⁻¹ s⁻¹.
For B8, the Kd was found to be 122 nM, the koff is 0.0088 s⁻¹ and the kon stood at 73000 M⁻¹ s⁻¹.
For B9, in that order: 86 nM, 0.0043 s⁻¹ and 51000 M⁻¹ s⁻¹.
B10: the Kd came out at 234 nM, the off-rate constant (koff) worked out at 0.016 s⁻¹ and the kon worked out at 67000 M⁻¹ s⁻¹.
For B11, in that order: 105 nM, 0.006 s⁻¹ and 57000 M⁻¹ s⁻¹.
For B2, in that order: 40 nM, 0.003 s⁻¹ and 74000 M⁻¹ s⁻¹.

Another test deals with T2, human EGFR, purified recombinant …. Description: ELISA, plate coated with human EGFR1, anti-human IgG-HRP, OD450. On the technique in general: ELISA stands for enzyme-linked immunosorbent assay.
In the case of B3, the binding result is on record as “no binding”.
On the same count and under the same terms, the value for B6 was “no binding”.
Same read-out and setting: the value for B8 was “no binding”; that for B10 was “no binding”.
Still for that read-out and setting: the entry for B2 is “no binding”.

Another test addresses T4, human EGFRvIII, purified recombinant …. As to the kind of experiment: ELISA, antigen coated at 1 ug/mL, anti-human IgG-HRP, n=3.
Regarding B3, the half-maximal effective concentration (EC50) came to 0.103 nM.
For B1, the concentration giving a half-maximal response (EC50) worked out at 0.155 nM.
Consider B4, for which the half-maximal effective concentration (EC50) was 0.091 nM.
Still for that read-out and setting: the figure for B5 is 0.111 nM; for B6 it is 0.122 nM.
Same read-out and setting: the value for B7 was 0.126 nM; that for B8 was 0.102 nM.
The same measure, in the same setting: the figure for B9 is 0.137 nM; for B10 it is 0.121 nM; for B11 it is 0.112 nM.
Regarding B2, the concentration giving a half-maximal response (EC50) is 0.144 nM.
